Source: patent publication US7740850B2, “PDGFRβ-specific antibodies” (ImClone, LLC, priority 2007, dated 2010)

B1: 1B3: human anti-mouse PDGFRβ antibody from Fab phage display library, human κ/γ1 constant regions; SEQ ID NOS in Table 1 (antibody, listed as Homo sapiens, V domains shown)
VH: QVQLQESGGGLVKPGGSLRLSCAASGFTFSSYSMNWVRQAPGKGLEWVSSISSSSSYIYYADSVKGRFTISRDNSKNTLYLQMNSLRAEDTAVYYCAKGGRPLLVFDFWGQGTLVTVS
VL: EIVMTQSPGTLSLSPGERATLSCRASQSVSSSYLAWYQQKPGQAPRLLIYDASKRATGIPARFSGSGSGTDFTLTISTLESEDSAVYYCQQRGYWPPITFGQGTRLEIKR
modifications: human kappa/gamma1 constant regions
B2: 2C5: PDGFRβ-specific human antibody binding both human and murine PDGFRβ; SEQ ID NOS in Table 1 (antibody, listed as Homo sapiens, V domains shown)
VH: QVQLVQSGAEVKKPGSSVKVSCKASGGTFSSYAISWVRQAPGQGLEWMGRIIPILGIANYAQKFQGRVTITADKSTSTAYMELSSLRSEDTAVYYCARDMGSRNYYYFYWGQGTLVTVSS
VL: EIVLTQSPATLSLSPGERATLSCRASQSVGRYLAWYQQKPGQAPRLLIYGASNRATGIPARFSGSGSGTDFTLTISSLEPEDFAVYYCQQRSNWPLTFGGGTKVEIK

Experiments:
[1] = system: human xenograft tumors; assay: Human tumor xenograft models in athymic nude mice (statements over several models); assay type: in vivo; details: all six xenograft models, i.p. up to 60 mg/kg
Method: Antitumor activity of anti-mPDGFRβ antibody in tumor xenograft models. Six human xenograft tumor models, including three ovarian carcinoma (SK-OV-3, OV-CAR-5 and OV-CAR-8), one pancreatic carcinoma (BxPC3), one lung carcinoma (NCI-H460), and one kidney carcinoma (Caki-1), were used to assess the antitumor activity of 1B3 in vivo. Athymic (nu/nu) mice (female, 7-8 weeks of age) were housed for 7-10 days before xenograft implantation. Each mouse was injected subcutaneously with 3-10×10^6 cells of SK-OV-3, OVCAR-5, OVCAR-8, Caki-1, BxPC3 or NCI-H460 tumor cells. When tumors reached approximately 250-300 mm^3, mice were randomized into groups of 10 to 12 animals each and treated by intraperitoneal injection, 2 to 3 times per week, with 1B3, DC101, or 1B3 in combination with DC101. Human IgG and/or USP saline were used as control groups. Tumor sizes and mouse body weight were measured twice a week. Tumor volume was calculated using the formula: π/6×(length×width^2), where length=longest diameter and width=diameter perpendicular to length. The ratio of average tumor volume in the treatment group versus that in the control group (T/C %) was calculated. Statistic analysis was performed by Student's t-test.
The xenograft cell lines were BxPC-3, MIA-PaCa-2, Detroit-562, HCT-8, NCI-H460, NCI-H292, and HCT-116. […] (FIG. 10 and Table 3). […]

[2] = system: SK-OV-3 ovarian carcinoma xenograft; assay: Subcutaneous tumor xenograft model; assay type: in vivo, mouse
Method: (§1) Six xenograft models, SK-OV-3, OV-CAR-8, BxPC-3, OV-CAR-5, Caki-1 and NCI-H460 (A to F, respectively) were used to examine the effects of 1B3 on xenograft tumors in athymic nude mice. Mice with established tumors (˜250-300 mm^3) were randomly grouped and treated with 1B3, normal human IgG, or saline by intraperitoneal injection twice weekly (except for BxPC-3 model where the mice were treated three times a week) at the dose indicated. Tumor volumes were measured twice a week and are presented as mean±SEM. *1 indicates the loss of one mouse due to severe illness. 1B3 binds to mouse, but not human, PDGFRβ. Accordingly, the observed responses to treatment result from inhibition of stimulation of host cells.
(§2) Antitumor activity of anti-mPDGFRβ antibody in tumor xenograft models. Six human xenograft tumor models, including three ovarian carcinoma (SK-OV-3, OV-CAR-5 and OV-CAR-8), one pancreatic carcinoma (BxPC3), one lung carcinoma (NCI-H460), and one kidney carcinoma (Caki-1), were used to assess the antitumor activity of 1B3 in vivo. […] Tumor sizes and mouse body weight were measured twice a week. Tumor volume was calculated using the formula: π/6×(length×width^2), where length=longest diameter and width=diameter perpendicular to length. The ratio of average tumor volume in the treatment group versus that in the control group (T/C %) was calculated. […]

[3] = system: Caki-1 kidney carcinoma xenograft; assay: Subcutaneous tumor xenograft model; assay type: in vivo, mouse
Method: as §1, §2

[4] = system: Akt and p44/42 MAP kinase in Caki-1 cells; assay: PDGF-BB-stimulated downstream signaling (Western blot); assay type: cell-based, human
Method: To study the downstream signaling, the cell lysate from the above treatment were resolved by a 4-12% NuPAGE Bis-Tris gel. Phosphorylated Akt and p44/42 mitogen-activated protein kinase (MAPK) were detected using an anti-phospho-Akt and an anti-phospho-p44/p42 MAPK and p44/p42 MAPK, respectively (eBioscience, San Diego, Calif.).
2C5 inhibits PDGF-BB-stimulated receptor phosphorylation and downstream signaling in a cell-based assay. The ability of 2C5 to block PDGFRβ phosphorylation was determined for human Caki-1 tumor cells (FIG. 7) and mouse NIH/3T3 and D122 cells lines (FIG. 8).

[5] = system: PDGFRβ; assay: Epitope mapping, binding domains; details: chimeric and shorter PDGFRβ constructs
Method: 2C5 binds to domain 1 (D1) and domain 2 (D2) of PDGFRβ. Various chimeric constructs of PDGFRβ and PDGFRα were first made by domain swapping, starting from N-terminus to C-terminus with PDGFRβ domain(s) replacing PDGFRα domain(s). The PDGFRβ/α chimera were tested for the ability of 2C5 binding. Shorter versions of PDGFRβ, including D1D2, D2D3 and D1D2D3, were then made to confirm the 2C5 binding domains on PDGFRβ.

[6] = system: 2β3α; assay: Epitope mapping, PDGFRβ/α chimera; assay type: binding; details: ✓ / X, key not given
Method: Various chimeric constructs of PDGFRβ and PDGFRα were first made by domain swapping, starting from N-terminus to C-terminus with PDGFRβ domain(s) replacing PDGFRα domain(s). The PDGFRβ/α chimera were tested for the ability of 2C5 binding. Shorter versions of PDGFRβ, including D1D2, D2D3 and D1D2D3, were then made to confirm the 2C5 binding domains on PDGFRβ.

Molecule	overt toxicity, including changes in body weight and animal behavior [1]	tumor growth inhibition ([2]; 60 mg/kg i.p. twice weekly)	tumor growth inhibition ([2]; two lower doses (6, 20 mg/kg) i.p. twice weekly)	antitumor activity ([3]; Caki-1, 40 mg/kg three times per week or 60 mg/kg twice weekly)	Tumor Volume T/C % ([3]; Caki-1 xenograft, monotherapy)	inhibition of PDGF-BB-stimulated phosphorylation of Akt and p44/42 MAP kinase [4]	binding domains on PDGFRβ [5]	binding to 2β3α [6]
B1	did not cause any overt toxicity	completely blocked the tumor growth for up to 29 days	No tumor growth inhibition was observed	failed to show any antitumor activity	65%			
B2						potently inhibited	binds to PDGFRβ via both D1 and D2 of the receptor	✓
